Test results published in publication PMC5552277.

Key:
[1] = biological target: TFAM-CTΔ26;POLRMT;TFB2M del221-246 (human;human?;human?) (UniProt Q00059+O00411+Q9H5Q4); assay: DNase I footprinting; settings: Footprinting: 10 mM HEPES pH 7.5, 10 mM MgCl2, 10 mM CaCl2 (so in the source), 100 mM NaCl, 1 mM TCEP, 0.1 mg/mL BSA, 32°C; AFM buffer not in material
[2] = biological target: T1, TFAM (WT) (human) (UniProt Q00059); assay: DNase I footprinting; settings: Footprinting: 10 mM HEPES pH 7.5, 10 mM MgCl2, 10 mM CaCl2 (so in the source), 100 mM NaCl, 1 mM TCEP, 0.1 mg/mL BSA, 32°C; AFM buffer not in material
T1 sequence: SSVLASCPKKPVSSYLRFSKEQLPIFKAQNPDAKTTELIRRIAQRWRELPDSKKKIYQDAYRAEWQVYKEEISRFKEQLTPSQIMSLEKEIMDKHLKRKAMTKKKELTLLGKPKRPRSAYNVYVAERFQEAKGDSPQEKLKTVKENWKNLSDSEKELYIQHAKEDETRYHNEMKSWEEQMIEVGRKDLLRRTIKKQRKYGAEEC

[3] = system: TFAM (WT) (human); assay: AFM in liquid, fractional DNA contour coverage; settings: effective free TFAM concentration; Footprinting: 10 mM HEPES pH 7.5, 10 mM MgCl2, 10 mM CaCl2 (so in the source), 100 mM NaCl, 1 mM TCEP, 0.1 mg/mL BSA, 32°C; AFM buffer not in material
[4] = system: TFAM-CTΔ26 (human); assay: AFM in liquid, persistence length; settings: 100 nM CTΔ26 (33 nm) similar to 10 nM TFAM (30 nm); no looping enhancement; Footprinting: 10 mM HEPES pH 7.5, 10 mM MgCl2, 10 mM CaCl2 (so in the source), 100 mM NaCl, 1 mM TCEP, 0.1 mg/mL BSA, 32°C; AFM buffer not in material

Chain of TFAM-CTΔ26;POLRMT;TFB2M del221-246 (human;human?;human?) (O00411 42-1230, stated change not applied, chain 2 of 2): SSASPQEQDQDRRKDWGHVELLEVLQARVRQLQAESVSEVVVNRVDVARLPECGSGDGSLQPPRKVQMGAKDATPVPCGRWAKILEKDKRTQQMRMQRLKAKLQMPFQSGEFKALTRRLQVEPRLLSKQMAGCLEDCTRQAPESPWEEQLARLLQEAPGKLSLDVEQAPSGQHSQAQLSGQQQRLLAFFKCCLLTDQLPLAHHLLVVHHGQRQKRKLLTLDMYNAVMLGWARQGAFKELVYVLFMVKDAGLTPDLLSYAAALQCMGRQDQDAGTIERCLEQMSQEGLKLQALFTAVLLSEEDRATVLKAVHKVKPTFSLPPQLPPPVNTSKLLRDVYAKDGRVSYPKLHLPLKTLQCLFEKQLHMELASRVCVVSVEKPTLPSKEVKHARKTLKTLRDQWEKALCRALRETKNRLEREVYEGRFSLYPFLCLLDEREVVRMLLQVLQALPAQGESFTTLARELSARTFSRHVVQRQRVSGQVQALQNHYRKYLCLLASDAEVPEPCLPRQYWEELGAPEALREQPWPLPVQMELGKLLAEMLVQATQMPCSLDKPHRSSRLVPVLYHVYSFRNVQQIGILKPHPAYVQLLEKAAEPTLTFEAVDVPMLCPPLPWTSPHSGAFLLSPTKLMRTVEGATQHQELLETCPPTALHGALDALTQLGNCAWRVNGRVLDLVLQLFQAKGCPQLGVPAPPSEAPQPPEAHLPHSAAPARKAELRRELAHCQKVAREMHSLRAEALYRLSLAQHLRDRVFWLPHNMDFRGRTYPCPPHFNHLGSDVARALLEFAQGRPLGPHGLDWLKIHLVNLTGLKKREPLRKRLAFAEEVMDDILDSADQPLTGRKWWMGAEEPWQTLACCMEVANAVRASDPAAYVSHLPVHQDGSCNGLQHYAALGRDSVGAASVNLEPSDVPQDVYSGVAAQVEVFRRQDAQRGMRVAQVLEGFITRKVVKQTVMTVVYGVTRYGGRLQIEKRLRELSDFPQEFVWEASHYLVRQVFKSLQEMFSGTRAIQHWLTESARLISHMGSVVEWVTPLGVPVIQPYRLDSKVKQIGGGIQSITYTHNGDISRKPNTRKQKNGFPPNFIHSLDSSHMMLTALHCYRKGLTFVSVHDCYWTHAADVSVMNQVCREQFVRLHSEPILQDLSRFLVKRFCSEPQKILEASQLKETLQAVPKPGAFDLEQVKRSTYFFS
Chain of TFAM-CTΔ26;POLRMT;TFB2M del221-246 (human;human?;human?) (Q9H5Q4 20-396, stated change not applied, chain 3 of 2): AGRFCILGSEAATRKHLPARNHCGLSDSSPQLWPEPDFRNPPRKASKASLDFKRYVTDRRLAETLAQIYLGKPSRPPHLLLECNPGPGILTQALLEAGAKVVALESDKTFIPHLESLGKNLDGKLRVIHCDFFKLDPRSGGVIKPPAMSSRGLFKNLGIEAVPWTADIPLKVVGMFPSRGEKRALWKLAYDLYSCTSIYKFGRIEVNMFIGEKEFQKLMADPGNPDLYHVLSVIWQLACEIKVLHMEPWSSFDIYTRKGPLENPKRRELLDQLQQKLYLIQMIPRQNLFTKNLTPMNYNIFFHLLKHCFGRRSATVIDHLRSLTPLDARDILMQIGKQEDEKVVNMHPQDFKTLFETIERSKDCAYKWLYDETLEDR

| Substance | binding [1] | binding [2] | Kd [3] [nM] | binding signal (fold weaker than WT TFAM) [4] |
| --- | --- | --- | --- | --- |
| ATTGCTTTGAGGAGGTAAGCTACATAAACTGTGGGGGGTGTCTTTGGGGTTTGGTTGGTTCGGGGTATGGGGTTAGCAGCGGTGTGTGTGTGCTGGGTAGGATGGGCGGGGGTTGTATTGATGAGATTAGTAGTATGGGAGTGGGAGGGGAAAATAATGTGTTAGTTGGGGGGTGACTGTTAAAAGTGCATACCGCCAAAAGATAAAATTTGAAATCTGGTTAGGCTGGTGTT (double strand) [dual promoter template (DPT-WT)] | binds more weakly | binds |  |  |
| puc18 control construct (AFM) |  |  | 200 |  |
| mtDNA construct (AFM) |  |  | 59 | 10 |
